The results in this text go back to the Immune Epitope Database (IEDB).

One experiment concerns the target HLA-A*68:01. The experiment can be described thus: IEDB peptide-MHC binding, purified MHC/competitive/radioactivity; filed as Kd, often an IC50 or EC50 that approximates it; ≥ and ≤ were set here for values at or beyond the usual limits of such assays. The conditions noted are these: source organism: Vaccinia virus WR.
A further experiment concerns the target HLA-A*33:01. The experiment is described as above. Particulars: source organism: Vaccinia virus WR.
In experiment [1] the target is HLA-A*69:01. The experiment can be described thus: IEDB peptide-MHC binding, purified MHC/competitive/fluorescence; filed as Kd, often an IC50 or EC50 that approximates it; ≥ and ≤ were set here for values at or beyond the usual limits of such assays.
The target of experiment [2] is HLA-B*15:17. The experiment is described as above. The conditions noted are these: source organism: Variola virus.
Experiment [3] has as its target HLA-A*03:01. Described as above.
Experiment [4] has as its target HLA-A*11:01. The description is as above. Particulars: source organism: Variola virus.
The target of experiment [5] is HLA-A*01:01. The description is as above.
For experiment [6], the target named is HLA-B*57:01. Described as above. The conditions noted are these: source organism: Variola virus.
For a further experiment, the target named is HLA-A*02:01. The experiment can be described thus: IEDB peptide-MHC binding, purified MHC/direct/fluorescence; filed as Kd, often an IC50 or EC50 that approximates it; ≥ and ≤ were set here for values at or beyond the usual limits of such assays.
Experiment [7] addresses HLA-B*46:01. The description is as above.
The target in another experiment is HLA-B*40:01. The description is as above.
For another experiment, the target named is HLA-A*31:01. The description is as above.
Experiment [8] concerns the target HLA-B*58:01. The experiment is described as above.
A further experiment has as its target HLA-B*27:05. The experiment is described as above.
Experiment [9] addresses HLA-A*26:01. The description is as above.
A further experiment addresses HLA-B*48:01. The description is as above.
The next experiment concerns the target HLA-A*26:02. The experiment is described as above.
Experiment [10] concerns the target HLA-B*15:01. The experiment is described as above.
Experiment [11] concerns the target HLA-A*03:01. Described as above.
Experiment [12] concerns the target HLA-A*01:01. The description is as above.
The target of a further experiment is HLA-B*07:02. The experiment is described as above.
Experiment [13] addresses HLA-A*69:01. Described as above. The conditions noted are these: source organism: Coxiella burnetii.
The target of experiment [14] is HLA-B*15:17. The experiment is described as above. Particulars: source organism: Coxiella burnetii.
The target of another experiment is HLA-B*08:02. The description is as above. The conditions noted are these: source organism: Coxiella burnetii Q321.
Another experiment addresses HLA-A*68:02. The description is as above.
The target of experiment [15] is HLA-A*11:01. The description is as above. The conditions noted are these: source organism: Coxiella burnetii.
Experiment [16] concerns the target HLA-B*18:01. Described as above. The conditions noted are these: source organism: Coxiella burnetii.
For experiment [17], the target named is HLA-B*57:01. The description is as above. Particulars: source organism: Coxiella burnetii.
In a further experiment the target is HLA-B*08:01. The description is as above. The conditions noted are these: source organism: Coxiella burnetii Q321.
The target of experiment [18] is HLA-B*58:01. The experiment can be described thus: IEDB peptide-MHC binding, purified MHC/competitive/fluorescence; filed as Kd, often an IC50 or EC50 that approximates it; ≥ and ≤ were set here for values at or beyond the usual limits of such assays. Particulars: source organism: Burkholderia orbicola.
Experiment [19] has as its target HLA-B*15:01. The experiment is described as above.
The target of experiment [20] is HLA-A*26:01. The experiment is described as above.
The target of the next experiment is HLA-B*39:01. The description is as above. The conditions noted are these: source organism: Orthohantavirus andesense.
For experiment [21], the target named is HLA-B*46:01. The experiment is described as above. The conditions noted are these: source organism: Orthohantavirus andesense.
A further experiment concerns the target HLA-B*51:01. The description is as above. Particulars: source organism: Orthohantavirus andesense.
Experiment [22] deals with HLA-B*18:01. Described as above. The conditions noted are these: source organism: Orthohantavirus andesense.
The target in another experiment is HLA-B*27:03. The description is as above. The conditions noted are these: source organism: Orthohantavirus andesense.
A further experiment addresses HLA-A*02:03. The experiment can be described thus: IEDB peptide-MHC binding, purified MHC/direct/fluorescence; filed as Kd, often an IC50 or EC50 that approximates it; ≥ and ≤ were set here for values at or beyond the usual limits of such assays. The conditions noted are these: source organism: Calabazo virus.
Another experiment concerns the target HLA-C*14:02. The experiment is described as above. Particulars: source organism: Orthohantavirus andesense.
For the next experiment, the target named is HLA-A*02:16. The experiment is described as above. The conditions noted are these: source organism: Calabazo virus.
A further experiment concerns the target HLA-C*15:02. The description is as above. Particulars: source organism: Orthohantavirus andesense.
[23] abbreviates: source organism: Camelpox virus M-96.
Setting [24] is: source organism: Vibrio cholerae V51.
The mark [25] stands for this setting: source organism: Burkholderia mallei.
Where [26] appears, read: source organism: Burkholderia mallei ATCC 23344.
Setting [27] is: source organism: Coxiella burnetii.
Setting [28] is: source organism: Coxiella burnetii Q321.
[29] abbreviates: source organism: Burkholderia orbicola.
[30] abbreviates: source organism: Orthohantavirus andesense.
Setting [31] is: source organism: Calabazo virus.

For the sequence ETIEILRNY, the Kd (as a rule, a measure of binding affinity in units of concentration) in the experiment with HLA-A*68:01 was 14.6 nM; with HLA-A*33:01, 2140 nM; with HLA-A*69:01 [1] (source organism: Variola virus), no less than 20 µM; in the experiment with HLA-B*15:17 [2], 86.9 nM; with HLA-A*03:01 [3] (source organism: Variola virus), 1950 nM; in the experiment with HLA-A*11:01 [4], no less than 20 µM. In addition, the dissociation constant Kd was 3600 nM with HLA-A*01:01 [5] (source organism: Variola virus); 926 nM in the experiment with HLA-B*57:01 [6]; no less than 20 µM with HLA-A*02:01 (setting [23]); no less than 20 µM with HLA-B*46:01 [7] (setting [23]); no less than 20 µM with HLA-B*40:01 (setting [23]); no less than 20000 nM with HLA-A*31:01 (setting [23]). Besides, the Kd is no less than 20000 nM with HLA-B*58:01 [8] (setting [23]), no less than 20 µM with HLA-B*27:05 (setting [23]), 2.1 nM in the experiment with HLA-A*26:01 [9] (setting [23]) and no less than 20 µM with HLA-B*48:01 (setting [23]).

As to AIARGFHFY, the Kd was 1070 nM with HLA-A*26:01 [9] (setting [24]) and 107 nM with HLA-A*26:02 (setting [24]).

For STYQPLPLY, the Kd is no less than 20 µM in the experiment with HLA-A*02:01 (setting [25]); 195 nM with HLA-B*58:01 [8] (setting [25]); no less than 20 µM in the experiment with HLA-B*27:05 (setting [25]); 24.5 nM with HLA-B*15:01 [10] (setting [25]); no less than 20 µM with HLA-A*03:01 [11] (setting [25]); 39 nM in the experiment with HLA-A*26:01 [9] (setting [26]). In addition, the equilibrium dissociation constant (Kd) with HLA-A*01:01 [12] (setting [25]) was 971 nM; with HLA-B*07:02 (setting [25]), no less than 20 µM; with HLA-A*26:02 (setting [26]), no more than 1 nM.

Consider VFFKQWFEK, for which the Kd in the experiment with HLA-A*69:01 [13], with HLA-A*02:01 (setting [27]), with HLA-B*15:17 [14], with HLA-B*46:01 [7] (setting [27]), in the experiment with HLA-B*40:01 (setting [27]) and in the experiment with HLA-B*08:02 was no less than 20 µM in each case. The dissociation constant Kd with HLA-A*31:01 (setting [27]) is 66 nM; in the experiment with HLA-B*58:01 [8] (setting [27]), no less than 20000 nM; with HLA-B*27:05 (setting [27]), no less than 20 µM; with HLA-B*15:01 [10] (setting [27]), no less than 20000 nM; with HLA-A*68:02 (setting [27]), no less than 20 µM; with HLA-A*03:01 [11] (setting [27]) it was 0.312 µM. The Kd is no less than 20000 nM in the experiment with HLA-A*26:01 [9] (setting [28]); no less than 20 µM in the experiment with HLA-B*48:01 (setting [27]); 163 nM with HLA-A*11:01 [15]; no less than 20000 nM with HLA-A*01:01 [12] (setting [27]); no less than 20 µM in the experiment with HLA-B*18:01 [16]; no less than 20 µM with HLA-B*07:02 (setting [27]). The Kd with HLA-A*26:02 (setting [28]) is no less than 20000 nM; with HLA-B*57:01 [17] it was no less than 20 µM; in the experiment with HLA-B*08:01, no less than 20 µM.

Turning to ASAAHLAAY, the Kd with HLA-B*58:01 [18] stood at 1260 nM; in the experiment with HLA-B*15:01 [19] (setting [29]), 156 nM; with HLA-A*03:01 [3] (setting [29]), 700 nM; with HLA-A*26:01 [20] (setting [29]), 775 nM; in the experiment with HLA-A*01:01 [5] (setting [29]), 23.6 nM.

In the experiment with HLA-A*01:01 [5] (source organism: Homo sapiens), LVFLGPGLY displayed a Kd of 221 nM.

In the case of RMMATKDSF, the Kd with HLA-A*69:01 [1] (setting [30]) was no less than 20 µM; in the experiment with HLA-B*39:01, no less than 20 µM; with HLA-B*46:01 [21], no less than 20 µM; with HLA-B*15:01 [19] (setting [30]), 44.1 nM; with HLA-A*26:01 [20] (setting [30]), no less than 20000 nM; with HLA-B*51:01, no less than 20 µM. In addition, the equilibrium dissociation constant (Kd) with HLA-B*18:01 [22] is no less than 20 µM; in the experiment with HLA-B*27:03 it was no less than 20 µM; in the experiment with HLA-A*02:03, no less than 20 µM; with HLA-C*14:02 it was 157 nM; in the experiment with HLA-B*58:01 [8] (source organism: Orthohantavirus moroense), 6.5 nM; with HLA-A*68:02 (setting [31]) it was no less than 20 µM. Moreover, the Kd in the experiment with HLA-A*03:01 [11] (setting [31]), with HLA-A*02:16 and with HLA-C*15:02 was no less than 20 µM throughout.
